Bridges are numbered along the chain shown (N, C = ends). Where no end group is shown, it is not given here. [ ]: non-standard residue; d: D form. Nle = CCCC[C@H](N)C(=O)O; Dap = NC[C@H](N)C(=O)O
Key:
Experiment in all cases: cell-based or functional assay
[1] = target: mouse melanocortin-4 receptor (mouse, UniProt P56450 1-332)
[2] = target: mouse melanocortin-5 receptor (mouse, UniProt P41149 1-325)
[3] = target: mouse melanocortin-1 receptor (mouse, UniProt Q01727 1-315)
[4] = target: mouse melanocortin-3 receptor (mouse, UniProt P33033 1-323)
mouse melanocortin-3 receptor, sequence (P33033 whole entry): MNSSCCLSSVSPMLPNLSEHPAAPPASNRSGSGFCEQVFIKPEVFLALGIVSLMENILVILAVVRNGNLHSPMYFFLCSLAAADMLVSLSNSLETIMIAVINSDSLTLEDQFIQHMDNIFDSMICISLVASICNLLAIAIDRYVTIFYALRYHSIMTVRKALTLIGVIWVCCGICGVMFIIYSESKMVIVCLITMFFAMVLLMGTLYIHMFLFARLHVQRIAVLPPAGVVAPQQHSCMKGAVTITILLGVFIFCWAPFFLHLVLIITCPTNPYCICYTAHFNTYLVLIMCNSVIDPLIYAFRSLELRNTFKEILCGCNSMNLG

mouse melanocortin-1 receptor, sequence (Q01727 whole entry): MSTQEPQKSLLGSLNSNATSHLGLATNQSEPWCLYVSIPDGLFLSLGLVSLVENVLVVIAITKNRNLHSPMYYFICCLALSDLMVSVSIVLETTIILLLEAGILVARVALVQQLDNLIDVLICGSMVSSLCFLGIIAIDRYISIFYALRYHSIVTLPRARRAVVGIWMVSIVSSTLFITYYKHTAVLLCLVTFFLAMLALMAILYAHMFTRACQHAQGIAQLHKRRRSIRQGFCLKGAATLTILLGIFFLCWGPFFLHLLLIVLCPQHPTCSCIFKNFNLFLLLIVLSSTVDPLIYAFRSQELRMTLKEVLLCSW
mouse melanocortin-4 receptor, sequence (P56450 whole entry): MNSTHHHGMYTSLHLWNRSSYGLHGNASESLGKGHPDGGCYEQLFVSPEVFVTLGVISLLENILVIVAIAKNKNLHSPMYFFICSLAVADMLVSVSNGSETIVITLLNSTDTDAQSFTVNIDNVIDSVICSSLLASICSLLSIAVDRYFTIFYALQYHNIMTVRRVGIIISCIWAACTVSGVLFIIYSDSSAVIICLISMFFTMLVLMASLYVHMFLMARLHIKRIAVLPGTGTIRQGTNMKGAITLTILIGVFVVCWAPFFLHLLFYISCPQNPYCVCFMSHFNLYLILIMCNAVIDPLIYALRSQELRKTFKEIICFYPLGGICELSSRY
mouse melanocortin-5 receptor, sequence (P41149 whole entry): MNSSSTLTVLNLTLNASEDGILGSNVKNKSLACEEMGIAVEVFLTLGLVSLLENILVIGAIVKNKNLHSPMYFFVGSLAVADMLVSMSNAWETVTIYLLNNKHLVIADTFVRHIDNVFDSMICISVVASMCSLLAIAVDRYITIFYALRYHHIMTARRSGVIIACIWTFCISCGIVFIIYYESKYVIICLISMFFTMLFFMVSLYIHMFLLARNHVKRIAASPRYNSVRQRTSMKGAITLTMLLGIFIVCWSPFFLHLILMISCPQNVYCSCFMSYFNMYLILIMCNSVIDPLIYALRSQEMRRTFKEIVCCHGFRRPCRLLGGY

Binder | EC50 (agonist) [1] [nM] | EC50 (agonist) [2] [nM] | EC50 (agonist) [3] [nM] | EC50 (agonist) [4] [nM] | EC50 (agonist; Partial agonist) [1] [nM] | pA2 (antagonist; Partial agonist) [1] | pA2 (antagonist; Partial agonist) [4] | pA2 (antagonist) [4]
YDFRWNAF[Dap]Y-NH2 (lactam 2-9) [SEQ ID NO:6 (Tyr-c[Asp-Phe-Arg-Trp-Asn-Ala-Phe-Dpr]-Tyr)] | 13400 | 3900 | 19700 | – | – | – | – | –
YDAAANAF[Dap]Y-NH2 (lactam 2-9; N-terminus assumed; SMILES C[C@@H]1NC(=O)[C@H](C)NC(=O)[C@@H](NC(=O)[C@@H](N)Cc2ccc(O)cc2)CC(=O)NC[C@@H](C(=O)N[C@@H](Cc2ccc(O)cc2)C(N)=O)NC(=O)[C@H](Cc2ccccc2)NC(=O)[C@H](C)NC(=O)[C@H](CC(N)=O)NC(=O)[C@H](C)NC1=O) [SEQ ID NO:2 (Tyr-c[Asp-Ala-Ala-Ala-Asn-Ala-Phe-Dpr]-Tyr)] | > 100000 | > 100000 | > 100000 | > 100000 | – | – | – | –
YDWRFNAF[Dap]Y-NH2 (lactam 2-9; N-terminus assumed; SMILES C[C@@H]1NC(=O)[C@H](CC(N)=O)NC(=O)[C@H](Cc2ccccc2)NC(=O)[C@H](CCCNC(=N)N)NC(=O)[C@H](Cc2c[nH]c3ccccc23)NC(=O)[C@@H](NC(=O)[C@@H](N)Cc2ccc(O)cc2)CC(=O)NC[C@@H](C(=O)N[C@@H](Cc2ccc(O)cc2)C(N)=O)NC(=O)[C@H](Cc2ccccc2)NC1=O) [SEQ ID NO:4 (Tyr-c[Asp-Trp-Arg-Phe-Asn-Ala-Phe-Dpr]-Tyr)] | – | > 100000 | 13500 | > 100000 | 15900 | – | – | –
Ac-SYS[Nle]EH[dR]FFGKPV-NH2 [SEQ ID NO:16 (Ac-Ser-Tyr-Ser-Nle-Glu-His-DArg-Phe-Phe-Gly-Lys-Pro-Val)] | > 100000 | – | – | > 100000 | – | – | – | –
YDHXRWNAFXY (Asp-Dpr side chain lactam bridge; Dpr; DNal(1′); C-terminal amide (amide resin)) [SEQ ID NO:34 (Tyr-c[Asp-His-DNal(1′)-Arg-Trp-Asn-Ala-Phe-Dpr]-Tyr)] | 0.57 | 3.13 | 9.2 | 320 | – | – | – | –
YCRF[dF]NAFCY-NH2 (disulfide 2-9; N-terminus assumed; SMILES C[C@@H]1NC(=O)[C@H](CC(N)=O)NC(=O)[C@@H](Cc2ccccc2)NC(=O)[C@H](Cc2ccccc2)NC(=O)[C@H](CCCNC(=N)N)NC(=O)[C@@H](NC(=O)[C@@H](N)Cc2ccc(O)cc2)CSSC[C@@H](C(=O)N[C@@H](Cc2ccc(O)cc2)C(N)=O)NC(=O)[C@H](Cc2ccccc2)NC1=O) [SEQ ID NO:1 (Tyr-c[Cys-Arg-Phe-DPhe-Asn-Ala-Phe-Cys]-Tyr)] | – | 239 | 61.3 | > 100000 | – | 6.1 | – | –
Ac-[Nle]DHRF[dF]K-NH2 (lactam 2-7; SMILES CCCC[C@H](NC(C)=O)C(=O)N[C@H]1CC(=O)NCCCC[C@@H](C(N)=O)NC(=O)[C@@H](Cc2ccccc2)NC(=O)[C@H](Cc2ccccc2)NC(=O)[C@H](CCCNC(=N)N)NC(=O)[C@H](Cc2c[nH]cn2)NC1=O) [SEQ ID NO:23 (Ac-Nle-c[Asp-His-Arg-Phe-DPhe-Lys])] | > 100000 | – | 2630 | – | – | – | – | –
YDHXRANAFXY (Asp-Dpr side chain lactam bridge; Dpr; DPhe; C-terminal amide (amide resin)) [SEQ ID NO:27 (Tyr-c[Asp-His-DPhe-Arg-Ala-Asn-Ala-Phe-Dpr]-Tyr)] | 710 | 50.1 | 350 | 13500 | – | – | – | –
YDPXRWNAFXY (Asp-Dpr side chain lactam bridge; Dpr; DPhe; C-terminal amide (amide resin)) [SEQ ID NO:28 (Tyr-c[Asp-Pro-DPhe-Arg-Trp-Asn-Ala-Phe-Dpr]-Tyr)] | 0.63 | 7.16 | 22.1 | – | – | – | 7.2 | –
Ac-[Nle]DHR[dF]FK-NH2 (lactam 2-7) [SEQ ID NO:22 (Ac-Nle-c[Asp-His-Arg-DPhe-Phe-Lys])] | 5000 | 3600 | 440 | 14400 | – | – | – | –
YDXXRWNAFXY (Asp-Dpr side chain lactam bridge; Dpr; (rac)Atc; DPhe; C-terminal amide (amide resin)) [SEQ ID NO:30 (Tyr-c[Asp-(rac)Atc-DPhe-Arg-Trp-Asn-Ala-Phe-Dpr]-Tyr)] | 115 | 440 | 690 | – | – | – | – | 6.4
YDHXRPNAFXY (Asp-Dpr side chain lactam bridge; Dpr; DPhe; C-terminal amide (amide resin)) [SEQ ID NO:38 (Tyr-c[Asp-His-DPhe-Arg-Pro-Asn-Ala-Phe-Dpr]-Tyr)] | 7200 | 700 | 1000 | 39200 | – | – | – | –
YDHXPWNAFXY (Asp-Dpr side chain lactam bridge; Dpr; DPhe; C-terminal amide (amide resin)) [SEQ ID NO:36 (Tyr-c[Asp-His-DPhe-Pro-Trp-Asn-Ala-Phe-Dpr]-Tyr)] | 4300 | 3200 | 990 | 17300 | – | – | – | –
YDHXRXNAFXY (Asp-Dpr side chain lactam bridge; Dpr; DPhe; Nal(2′); C-terminal amide (amide resin)) [SEQ ID NO:39 (Tyr-c[Asp-His-DPhe-Arg-Nal(2′)-Asn-Ala-Phe-Dpr]-Tyr)] | 0.27 | 1.93 | 0.53 | 5.56 | – | – | – | –
YDHXRWNAFXY (Asp-Dpr side chain lactam bridge; Dpr; (pI)DPhe; C-terminal amide (amide resin)) [SEQ ID NO:32 (Tyr-c[Asp-His-(pI)DPhe-Arg-Trp-Asn-Ala-Phe-Dpr]-Tyr)] | – | 2.33 | 0.3 | – | – | 9.4 | – | 8.9
YDHXRXNAFXY (Asp-Dpr side chain lactam bridge; Dpr; DPhe; Bip; C-terminal amide (amide resin)) [SEQ ID NO:41 (Tyr-c[Asp-His-DPhe-Arg-Bip-Asn-Ala-Phe-Dpr]-Tyr)] | 42.6 | 3.43 | 11.6 | 450 | – | – | – | –
